Laboratory results reported in patent publication US20140011746A1 (WISCONSIN ALUMNI RESEARCH FOUNDATION, published 2014).

What was measured:
HER2 = biological target: T1, HER2 (human, UniProt P04626 23-1255); assay: co-immunoprecipitation from mammary cell lysates
T1 construct: whole, on cells; Endogenous protein in cell lysates; also called ErbB2; HER2/Neu

EGFR = biological target: T2, EGFR (human, UniProt P00533 25-1210); assay: co-immunoprecipitation from cell lysates
T2 construct: whole, on cells; Endogenous protein in cell lysates

α3β1 integrin = biological target: T3, α3β1 integrin (human, UniProt P26006 33-1051; P05556 21-798); assay: immunoprecipitation of native mSdc4 or mSdc4ΔC2 (FIG. 6D)
T3 construct: whole, on cells; Endogenous receptor in cell lysates
T3 sequence (P26006 33-1051, chain 1 of 2): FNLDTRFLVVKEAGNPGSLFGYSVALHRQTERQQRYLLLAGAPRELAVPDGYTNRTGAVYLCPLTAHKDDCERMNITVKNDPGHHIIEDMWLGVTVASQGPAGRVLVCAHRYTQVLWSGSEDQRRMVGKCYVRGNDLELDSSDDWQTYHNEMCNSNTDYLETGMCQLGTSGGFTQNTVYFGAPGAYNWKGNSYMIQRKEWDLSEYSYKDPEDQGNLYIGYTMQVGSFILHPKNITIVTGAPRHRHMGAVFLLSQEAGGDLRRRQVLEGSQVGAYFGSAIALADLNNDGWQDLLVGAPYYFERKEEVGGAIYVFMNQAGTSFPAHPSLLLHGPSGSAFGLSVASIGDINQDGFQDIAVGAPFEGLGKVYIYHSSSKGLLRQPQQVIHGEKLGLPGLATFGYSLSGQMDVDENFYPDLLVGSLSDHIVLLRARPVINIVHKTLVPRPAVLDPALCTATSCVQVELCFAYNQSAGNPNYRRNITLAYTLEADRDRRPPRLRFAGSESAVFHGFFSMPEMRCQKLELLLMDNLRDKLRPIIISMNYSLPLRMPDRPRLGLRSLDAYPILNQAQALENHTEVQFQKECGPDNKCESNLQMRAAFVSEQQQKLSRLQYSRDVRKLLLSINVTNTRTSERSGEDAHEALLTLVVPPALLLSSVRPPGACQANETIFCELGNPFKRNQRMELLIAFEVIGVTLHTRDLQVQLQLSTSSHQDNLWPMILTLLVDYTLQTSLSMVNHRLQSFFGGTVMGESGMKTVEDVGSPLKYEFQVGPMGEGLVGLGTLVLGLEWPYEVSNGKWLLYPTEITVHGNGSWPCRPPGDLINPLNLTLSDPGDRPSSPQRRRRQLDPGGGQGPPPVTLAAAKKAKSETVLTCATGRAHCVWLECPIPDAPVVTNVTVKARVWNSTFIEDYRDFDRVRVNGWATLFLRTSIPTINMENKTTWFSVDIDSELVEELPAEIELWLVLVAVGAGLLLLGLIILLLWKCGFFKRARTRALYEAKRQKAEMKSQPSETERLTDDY
T3 sequence (P05556 21-798, chain 2 of 2): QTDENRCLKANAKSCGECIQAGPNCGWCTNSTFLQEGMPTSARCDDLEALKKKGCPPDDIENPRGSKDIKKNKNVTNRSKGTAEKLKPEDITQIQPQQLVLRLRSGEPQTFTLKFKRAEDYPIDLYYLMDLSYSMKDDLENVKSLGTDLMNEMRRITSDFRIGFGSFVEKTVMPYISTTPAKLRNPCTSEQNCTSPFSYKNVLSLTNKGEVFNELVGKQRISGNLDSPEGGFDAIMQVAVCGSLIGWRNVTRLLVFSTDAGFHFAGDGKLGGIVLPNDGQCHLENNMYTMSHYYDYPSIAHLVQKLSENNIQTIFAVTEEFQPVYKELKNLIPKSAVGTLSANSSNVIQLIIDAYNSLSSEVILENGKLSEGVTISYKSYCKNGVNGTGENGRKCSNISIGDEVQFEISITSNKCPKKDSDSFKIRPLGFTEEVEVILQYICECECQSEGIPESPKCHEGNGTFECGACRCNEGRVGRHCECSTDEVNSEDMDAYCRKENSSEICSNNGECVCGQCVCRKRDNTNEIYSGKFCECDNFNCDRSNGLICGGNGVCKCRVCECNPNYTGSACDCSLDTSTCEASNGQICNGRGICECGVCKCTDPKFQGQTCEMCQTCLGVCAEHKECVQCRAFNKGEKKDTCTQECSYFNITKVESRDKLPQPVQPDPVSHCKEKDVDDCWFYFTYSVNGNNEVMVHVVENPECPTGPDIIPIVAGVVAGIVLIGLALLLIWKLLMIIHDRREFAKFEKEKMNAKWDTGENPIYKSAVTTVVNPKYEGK

B1: human syndecan-4 (receptor, UniProt P31431 19-198, looked up)
chain: ESIRETEVIDPQDLLEGRYFSGALPDDEDVVGPGQESDDFELSGSGDLDDLEDSMIGPEVVHPLVPLDNHIPERAGSGSQVPTEPKKLEENEVIPKRISPVEESEDVSNKVSMSSTVQGSNIFERTEVLAALIVGGIVGILFAVFLILLLMYRMKKKDEGSYDLGKKPIYKKAPTNEFYA
notes: whole, on cells; Endogenous protein, immunoprecipitated as a control; also called Sdc4; human Sdc4
HER2
  binding result: no binding

B2: human syndecan-1 (receptor)
chain: QIVATNLPPEDQDGSGDDSDNFSGSGAGALQDITLSQQTPSTWKDTQLLTAIPTSPEPTGLEATAASTSTLPAGEGPKEGEAVVLPEVEPGLTAREQEATPRPRETTQLPTTHQASTTTATTAQEPATSHPHRDMQPGHHETSTPAGPSQADLHTPHTEDGGPSATERAAEDGASSQLPAAEGSGEQDFTFETSGENTAVVAVEPDRRNQSPVDQGATGASQGLLDRKEVLGGVIAGGLVGLIFAVCLVGFMLYRMKKKDEGSYSLEEPKQANGGAYQKPTKQEEFYA
notes: Endogenous Sdc1 of human cells, immunoprecipitated from cell lysates; also called hSdc1; Sdc1
EGFR
  binding result: no binding

B3: mSdc4ΔC2 mutant (receptor, mouse, UniProt O35988 24-194, looked up)
chain: ESIRETEVIDPQDLLEGRYFSGALPDDEDAGGSDDFELSGSGDLDDTEEPRPFPEVIEPLVPLDNHIPENAQPGIRVPSEPKELEENEVIPKRAPSDVGDDMSNKVSMSSTAQGSNIFERTEVLAALIVGGVVGILFAVFLILLLVYRMKKKDEGSYDLGKKPIYKKAPTN
notes: whole, on cells; Lacks the last four residues, EFYA; also called mSdc4 C2
α3β1 integrin
  binding result: binds
